We go through three molecules from paper PMC4598028, “pH-Dependent Assembly and Segregation of the Coiled-Coil Segments of Yeast Putative Cargo Receptors Emp46p and Emp47p” (PLoS ONE, 2015).

Series [1] has as its target coiled-coil segment of Emp47p, Emp47p^CC (254–374) (yeast) (UniProt P43555). Nature of the series: native MS; nanoflow electrospray under non-denaturing conditions, 200 mM ammonium acetate pH 7.4; single proteins 43 uM; mixtures of Emp47p^CC 33 uM with 17, 33 and 67 uM Emp46p^CC, 25 °C, 30 min.
Series [2] deals with E303A mutant of Emp46p^CC (yeast) (UniProt Q12396). The experiment in a line: cross-linking; dimethyl suberimidate (DMS) 0.1 mg/mL, 60 or 120 min, room temperature, 100 mM carbonate/bicarbonate buffer pH 8.9; SDS-PAGE.
Series [3] deals with the molecule itself. Nature of the series: native MS; mass spectra under non-denaturing conditions measured at pH 5.0; Emp47p^CC fixed, Emp46p^CC varied.
Series [4] deals with the molecule itself. Nature of the series: SEC; Superose 12 gel filtration; Emp47p^CC 70 uM alone or with Emp46p^CC or its E303A mutant; 10 mM phosphate buffer pH 7.4, 150 mM NaCl. In general terms: Size exclusion chromatography separates by hydrodynamic size, large species first.

As a reminder, the stoichiometry N is the number of molecules, sites or subunits per partner or assembly. For the molecule “E303A mutant of Emp46p^CC (from UniProt Q12396 252-355) (domain or fragment)”, the stoichiometry N (Emp46p^CC per Emp47p^CC (printed as 1:3)) in series [1] worked out at 0.33. Also, in series [2], the stoichiometry N was determined as 2.

B1: coiled-coil segment of Emp47p, Emp47p^CC (254–374) (domain or fragment, yeast, UniProt P43555 282-402, looked up)
chain: GKEKLIEKTAFDADKDKITNYELYKKLDRVEGKILANDINALETKLNDVIKVQQELLSFMTTITKQLSSKPPANNEKGTSTDDAIAEDKENFKDFLSINQKLEKVLVEQEKYREATKRHGQ
notes: Emp47p, yeast putative cargo receptor, coiled-coil segment, residues 254-374 by the methods (the results print 271–274); in mixtures with Emp46p^CC it forms 1:3 and 2:2 heterotetramers; the results print (271–274); also called Emp47^CC; source: E. coli BL21-CodonPlus, purified (Chelating Sepharose, tag cleaved, gel filtration)
For B1, the “stoichiometry N” value in series [3] turned out to be 3; in series [4] it was 4.

B2: coiled-coil segment of Emp46p, Emp46p^CC (252–355) (domain or fragment, yeast, UniProt Q12396 298-401, looked up)
chain: EESFREKMPFSDKEESITSNELFEKMNKLEGKIMANDIDPLLRKMNKIVENERELIQRLRPLLDLKKTAISDDSFQDFLSMNANLDRLIKEQEKIRQDAKLYGK
notes: Emp46p, yeast putative cargo receptor, coiled-coil segment, residues 252-355; Monomer-dimer equilibrium by SV-AUC and native MS; also called wild-type Emp46p^CC; source: E. coli BL21-CodonPlus, purified (Chelating Sepharose, tag cleaved, gel filtration)
Turning to B2, in series [3], the “stoichiometry N” value amounted to 2.
